Laboratory results published in article PMC5379943 (The Journal of Cell Biology, 2017).

Target: T1, His-PLEKHM1 (1–300) (UniProt Q9Y4G2 1-300)
T1 construct: PLEKHM1, residues 1–300; also called His-tagged PLEKHM1 (1–300); source: purified
Experiment: pull-down; competition: GST-Arl8b as bait incubated with His-PLEKHM1 (1–300) and increasing concentrations of MBP-SKIP (1–300); immunoblot
Details: both partners purified

B1: GST-Arl8b (natural protein, UniProt Q9NVJ2 1-186, looked up)
chain: MLALISRLLDWFRSLFWKEEMELTLVGLQYSGKTTFVNVIASGQFSEDMIPTVGFNMRKVTKGNVTIKIWDIGGQPRFRSMWERYCRGVNAIVYMIDAADREKIEASRNELHNLLDKPQLQGIPVLVLGNKRDLPNALDEKQLIEKMNLSAIQDREICCYSISCKEKDNIDITLQWLIQHSKSRRS
notes: Arl8b small GTPase; source: E. coli BL21, purified on glutathione resin
binding result: binds
